Data: US20260242818A1

Biological target: barnase (Bacillus amyloliquefaciens) (UniProt P00648)
Assay: cell-based or functional assay

Chain of UniProt P00648 (P00648 48-157 limits assumed): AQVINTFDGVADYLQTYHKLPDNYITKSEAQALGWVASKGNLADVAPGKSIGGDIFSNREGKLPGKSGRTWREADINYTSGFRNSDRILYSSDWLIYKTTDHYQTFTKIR

barstar (from UniProt P11540 2-90)
pollen formation in F1 anthers (PI staining, confocal microscopy); TA29b::barnase × TA29b::barstar, barstar under the same promoter as barnase (pollen grains): 0
pollen viability (FDA/PI assay) in successful rescue F1 flowers, TA29b::barnase × TA29a::barstar: 3.6%
